From publication PMC8844075, “Structural basis of neuropeptide Y signaling through Y1 receptor” (Nature Communications, 2022)

target: Y1R-eYFP (wild-type Y1R) (human) (UniProt P25929)
Sequence (P25929 whole entry): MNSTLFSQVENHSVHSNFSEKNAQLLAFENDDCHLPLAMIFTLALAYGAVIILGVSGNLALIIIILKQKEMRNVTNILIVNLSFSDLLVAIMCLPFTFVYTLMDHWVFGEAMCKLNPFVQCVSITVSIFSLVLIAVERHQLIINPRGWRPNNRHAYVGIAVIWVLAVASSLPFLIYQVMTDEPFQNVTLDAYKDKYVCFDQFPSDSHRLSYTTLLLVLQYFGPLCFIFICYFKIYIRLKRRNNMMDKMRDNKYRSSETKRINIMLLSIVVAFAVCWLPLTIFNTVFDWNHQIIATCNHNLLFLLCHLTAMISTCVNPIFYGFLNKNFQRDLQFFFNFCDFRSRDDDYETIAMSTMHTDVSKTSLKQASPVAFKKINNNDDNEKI

Chain of PYY(3–36) (P10082 31-64): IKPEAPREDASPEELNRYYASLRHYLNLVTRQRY
Chain of peptide YY (PYY) (P10082 29-64): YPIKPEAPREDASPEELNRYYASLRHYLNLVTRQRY

In order of falling Ca2+ signalling assay in HEK293T cells, EC50:
1. NPY(3–36) (from UniProt P01303 31-64) (peptide)  86 nM
2. PYY(3–36) (from UniProt P10082 31-64) (peptide)  77 nM
3. peptide YY (PYY) (from UniProt P10082 29-64)  6.1 nM
